Columns and labels:
[1] = target: T1, human CD4, membrane-bound on cells (HPB-ALL cells, blood/PBMC CD4+ T cells, assay target cells) (human, UniProt P01730 26-458); experiment: competition FACS on HPB-ALL cells; inhibition of dB4-Alexa (250 ng/mL)
T1 construct: whole, on cells; Target on human HPB-ALL T-leukemic cells, human blood CD4+ T lymphocytes and CD4+ indicator cells of the neutralisation assays; also called CD4 receptor; surface CD4
Protocol: On V-bottomed microplates, aliquots of 2×10⁵ cells in 0.1 mL per well were added, centrifuged, and liquid discarded. […] The cells were washed once and the liquid discarded after centrifugation. To each well, aliquots of 200 μL of binding buffer were added and transferred to microdilution tubes for flow cytometric analysis. The binding intensity (mean fluorescence intensity, MFI), based on an inlet of 5,000 cells per sample, was read on FACS.

[2] = target: T1, human CD4, membrane-bound on cells …; experiment: competition FACS on HPB-ALL cells; reference dB4
[3] = target: T1, human CD4, membrane-bound on cells …; experiment: cell-based or functional assay
[4] = target: T1, human CD4, membrane-bound on cells …; experiment: cell-based or functional assay; remark: listed apart in the source
[5] = target: T1, human CD4, membrane-bound on cells …; experiment: cell-based or functional assay; remark: listed apart in the source
recombinant soluble CD4 [6] = target: T2, recombinant soluble CD4 (UniProt P01730 26-390, limits assumed); experiment: competition ELISA on coated sCD4/p2704a mixture; inhibition of B4-biotin (10 µg/mL)
T2 construct: also called sCD4; rsCD4

recombinant soluble CD4 [7] = target: T2, recombinant soluble CD4; experiment: competition ELISA on coated sCD4/p2704a mixture; reference dB4

B1: murine monoclonal antibody B4 (mAb B4) (antibody, V domains shown)
VH: QVQLQQSGPELVKPGASVRMSCKASGYTFTDYVIHWVKQRTGQGLEWIGEIYPGSGSAYSNAKFKDKATLTADKSSNTAYMQLSSLTSEDSAVYFCARRGNGTGFAYWGQGTLVTVSA
VL: DIVLTQSPASLAVSLGQRATISCKAGQSVDYDGDSYMNWYQQKPGQPPKLLIYVASNLESGIPARFSGSGSGTDFTLNIHPVEEEDAATYYCQQSYKDPLTFGAGTKLELK
modifications: N-glycosylated at Asn101 in the Fv
IC50 [1]: 0.135 µg/mL
IC50 ratio of B4 to dB4 [2]: 0.69 ratio
IC50 of entry inhibition, second cluster, panel of over 850 Env pseudotype viruses [3]: ~10 µg/mL
IC50 entry inhibition, PhenoSense, control virus 92HT594 [4]: 0.021 µg/mL
IC50 entry inhibition, PhenoSense, control virus JRCSF [4]: 0.034 µg/mL
IC50 entry inhibition, PhenoSense, control virus JRFL [4]: 0.074 µg/mL
IC50 entry inhibition, PhenoSense, isolate 92/RW/008 (clade A) [4]: 0.026 µg/mL
IC50 entry inhibition, PhenoSense, isolate 92/RW/024 (clade A) [4]: 0.055 µg/mL
IC50 entry inhibition, PhenoSense, isolate 92/TH/005 (clade EA) [4]: 0.012 µg/mL
IC50 entry inhibition, PhenoSense, isolate 92/TH/006 (clade EA) [4]: 0.022 µg/mL
IC50 entry inhibition, PhenoSense, isolate 92/TH/007 (clade EA) [4]: 0.013 µg/mL
IC50 entry inhibition, PhenoSense, isolate 92/TH/009 (clade EA) [4]: 0.021 µg/mL
IC50 entry inhibition, PhenoSense, isolate 92/TH/019 (clade EA) [4]: 0.022 µg/mL
IC50 entry inhibition, PhenoSense, isolate 92/TH/020 (clade EA) [4]: 0.015 µg/mL
IC50 entry inhibition, PhenoSense, isolate 92/TH/021 (clade EA) [4]: 0.017 µg/mL
IC50 entry inhibition, PhenoSense, isolate 92/TH/022 (clade EA) [4]: 0.012 µg/mL
IC50 entry inhibition, PhenoSense, isolate 92/TH/024 (clade EA) [4]: 0.01 µg/mL
IC50 entry inhibition, PhenoSense, isolate 92/UG/001 (clade D) [4]: 0.018 µg/mL
IC50 entry inhibition, PhenoSense, isolate 92/UG/005 (clade D) [4]: 0.019 µg/mL
IC50 entry inhibition, PhenoSense, isolate 92/UG/021 (clade D) [4]: 0.017 µg/mL
IC50 entry inhibition, PhenoSense, isolate 92/UG/024 (clade D) [4]: 0.04 µg/mL
IC50 entry inhibition, PhenoSense, isolate 92/UG/035 (clade D) [4]: 0.011 µg/mL
IC50 entry inhibition, PhenoSense, isolate 92/UG/038 (clade D) [4]: 0.014 µg/mL
IC50 entry inhibition, PhenoSense, isolate 92/UG/046 (clade D) [4]: 0.015 µg/mL
IC50 entry inhibition, PhenoSense, isolate 93/BR/019 (clade BF) [4]: 0.013 µg/mL
IC50 entry inhibition, PhenoSense, isolate 93/BR/020 (clade F) [4]: 0.024 µg/mL
IC50 entry inhibition, PhenoSense, isolate 93/IN/101 (clade C) [4]: 0.016 µg/mL
IC50 entry inhibition, PhenoSense, isolate 93/RW/029 (clade A) [4]: 0.019 µg/mL
IC50 entry inhibition, PhenoSense, isolate 93/TH/057 (clade E) [4]: 0.023 µg/mL
IC50 entry inhibition, PhenoSense, isolate 93/TH/305 (clade E) [4]: 0.021 µg/mL
IC50 entry inhibition, PhenoSense, isolate 93/UG/053 (clade D) [4]: 0.02 µg/mL
IC50 entry inhibition, PhenoSense, isolate 93/UG/065 (clade D) [4]: 0.015 µg/mL
IC50 entry inhibition, PhenoSense, isolate 93/UG/067 (clade D) [4]: 0.016 µg/mL
IC50 entry inhibition, PhenoSense, isolate 93/UG/070 (clade D) [4]: 0.011 µg/mL
IC50 entry inhibition, PhenoSense, isolate 93/UG/077 (clade A) [4]: 0.012 µg/mL
IC50 entry inhibition, PhenoSense, isolate 93/UG/082 (clade D) [4]: 0.016 µg/mL
IC50 entry inhibition, PhenoSense, isolate 93/UG/086 (clade D) [4]: 0.015 µg/mL
IC50 entry inhibition, PhenoSense, isolate 94/UG/103 (clade A) [4]: 0.021 µg/mL
IC50 entry inhibition, PhenoSense, isolate 94/UG/105 (clade D) [4]: 0.021 µg/mL
IC50 entry inhibition, PhenoSense, isolate 94/UG/114 (clade D) [4]: 0.015 µg/mL
IC50 entry inhibition, PhenoSense, isolate 94/UG/117 (clade D) [4]: 0.017 µg/mL
IC50 entry inhibition, PhenoSense, isolate 94/UG/118 (clade D) [4]: 0.02 µg/mL
IC50 entry inhibition, PhenoSense, isolate 10215-6 (clade C) [4]: 0.018 µg/mL
IC50 entry inhibition, PhenoSense, isolate 10362 (clade C) [4]: 0.02 µg/mL
IC50 entry inhibition, PhenoSense, isolate 11657-3 (clade C) [4]: 0.025 µg/mL
IC50 entry inhibition, PhenoSense, isolate 20635-4 (clade C) [4]: 0.02 µg/mL
IC50 entry inhibition, PhenoSense, isolate 21068 (clade C) [4]: 0.011 µg/mL
IC50 entry inhibition, PhenoSense, isolate CA1 (clade A) [4]: 0.011 µg/mL
IC50 entry inhibition, PhenoSense, isolate CA2 (clade A) [4]: 0.018 µg/mL
IC50 entry inhibition, PhenoSense, isolate CA3 (clade A) [4]: 0.019 µg/mL
IC50 entry inhibition, PhenoSense, isolate CC1 (clade C) [4]: 0.016 µg/mL
IC50 entry inhibition, PhenoSense, isolate CC2 (clade C) [4]: 0.021 µg/mL
IC50 entry inhibition, PhenoSense, isolate CC3 (clade C) [4]: 0.012 µg/mL
IC50 entry inhibition, PhenoSense, isolate CC4 (clade C) [4]: 0.013 µg/mL
IC50 entry inhibition, PhenoSense, isolate CC5 (clade C) [4]: 0.019 µg/mL
IC50 entry inhibition, PhenoSense, isolate CC6 (clade C) [4]: 0.018 µg/mL
IC50 entry inhibition, PhenoSense, isolate CC7 (clade C) [4]: 0.013 µg/mL
IC50 entry inhibition, PhenoSense, isolate CC8 (clade C) [4]: 0.019 µg/mL
IC50 entry inhibition, PhenoSense, isolate CC9 (clade C) [4]: 0.02 µg/mL
IC50 entry inhibition, PhenoSense, isolate CC10 (clade C) [4]: 0.015 µg/mL
IC50 entry inhibition, PhenoSense, isolate CD1 (clade D) [4]: 0.016 µg/mL
IC50 entry inhibition, PhenoSense, isolate CF2 (clade F) [4]: 0.016 µg/mL
IC50 entry inhibition, PhenoSense, isolate CF3 (clade F) [4]: 0.024 µg/mL
IC50 entry inhibition, PhenoSense, isolate CF4 (clade F) [4]: 0.019 µg/mL
IC50 entry inhibition, PhenoSense, isolate CF5 (clade F) [4]: 0.018 µg/mL
IC50 entry inhibition, PhenoSense, isolate CF6 (clade F) [4]: 0.018 µg/mL
IC50 entry inhibition, PhenoSense, isolate CF7 (clade F) [4]: 0.019 µg/mL
IC50 entry inhibition, PhenoSense, isolate CF8 (clade F) [4]: 0.017 µg/mL
IC50 entry inhibition, PhenoSense, isolate CG1 (clade G) [4]: 0.018 µg/mL
IC50 entry inhibition, PhenoSense, isolate CG2 (clade G) [4]: 0.027 µg/mL
IC50 entry inhibition, PhenoSense, isolate CG3 (clade G) [4]: 0.016 µg/mL
IC50 entry inhibition, PhenoSense, isolate CG4 (clade G) [4]: 0.013 µg/mL
IC50 entry inhibition, PhenoSense, isolate CJ1 (clade J) [4]: 0.018 µg/mL
IC50 entry inhibition, PhenoSense, isolate CJ2 (clade J) [4]: 0.019 µg/mL
IC50 entry inhibition, PhenoSense, isolate CMU02 (clade EA) [4]: 0.011 µg/mL
IC50 entry inhibition, PhenoSense, isolate CMU06 (clade E) [4]: 0.026 µg/mL
IC50 entry inhibition, PhenoSense, isolate MW/93/959 (clade C) [4]: 0.019 µg/mL
IC50 entry inhibition, PhenoSense, isolate MW/93/960 (clade C) [4]: 0.01 µg/mL
IC50 entry inhibition, PhenoSense, isolate QZ4589 (clade E?) [4]: 0.036 µg/mL
average IC50 entry inhibition, PhenoSense, all viruses of Table 3 [4]: 0.018 µg/mL
IC50 of HIV entry inhibition, pseudotype virus 92TH594 (R5/X4), U87-CD4+/CCR5+/CXCR4+ cells [5]: 0.05 µg/mL
IC50 of HIV entry inhibition, pseudotype virus HXB2 (X4), U87-CD4+/CCR5+/CXCR4+ cells [5]: 0.4 µg/mL
IC50 of HIV entry inhibition, pseudotype virus JRCSF (R5), U87-CD4+/CCR5+/CXCR4+ cells [5]: 0.04 µg/mL
IC50 (recombinant soluble CD4 [6]): 5.54 µg/mL
IC50 ratio of B4 to dB4 (recombinant soluble CD4 [7]): 0.68 ratio
